Experimental data reported in publication PMC2958806.

Tests used:
[1] = molecular target: DENV2 E DI/II protein (E domains I and II, E residues 1-291) (dengue virus 2 (New Guinea C strain))
[2] = molecular target: DENV2 E DI/II H244A (dengue virus 2 (New Guinea C strain))

Substance | liposome co-floatation of DI/II at low pH in the presence of DIII (no co-floatation when BSA was substituted for DIII) [1] | liposome co-floatation of H244A DI/II at pH 5.75 with DIII, efficiency of floatation in the presence of pr (43% in the absence of pr) [2]
DENV2 NGC DIII (LDIIIH1CS, E residues 289-430) (domain or fragment) | 25% | 
DENV2 pr peptide (recombinant, prM residues 1-86 with tandem Strep tag) (domain or fragment) |  | 47%
